# Experimental data taken from the supplement of paper PMC9233669.
# Fewer inactive variants are shown than the library holds.
# Key:
# biotinyl-Phe-oxazolone = assay: self-aminoacylation, catalytic enhancement (BFO) (fold over background); higher = more active; k-Seq, kA / k0A0; sequences stand for … in GGGAAUGGAUCCACAUCUACGAAUUC…UUCACUGCAGACUUGACGAAGCUG
# How it was run: (§1)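 Mutagenized RNA pools with a 21-nt variable region (0.43 μM) reacted with each biotinyl-aminoacyl-oxazolone at 2–1250 μM. Reactions ran in 50 μL HEPES/NaCl/KCl/MgCl2/CaCl2 buffer with 5% acetonitrile, pH 6.9–7.0, for 90 minutes at room temperature. Streptavidin-captured RNA was quantified by triplicate qPCR and Illumina sequencing, and per-sequence fraction reacted was fit to a pseudo-first-order model with 1000 bootstraps. Catalytic enhancement is median kA divided by the uncatalyzed rate, the low-activity peak of a bimodal Gaussian fit.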
# biotinyl-Ile-oxazolone = assay: self-aminoacylation, catalytic enhancement (BIO) (fold over background); higher = more active; k-Seq, kA / k0A0; sequences stand for … in GGGAAUGGAUCCACAUCUACGAAUUC…UUCACUGCAGACUUGACGAAGCUG
# How it was run: as §1
# biotinyl-Met-oxazolone = assay: self-aminoacylation, catalytic enhancement (BMO) (fold over background); higher = more active; k-Seq, kA / k0A0; sequences stand for … in GGGAAUGGAUCCACAUCUACGAAUUC…UUCACUGCAGACUUGACGAAGCUG
# How it was run: as §1
# biotinyl-Val-oxazolone = assay: self-aminoacylation, catalytic enhancement (BVO) (fold over background); higher = more active; k-Seq, kA / k0A0; sequences stand for … in GGGAAUGGAUCCACAUCUACGAAUUC…UUCACUGCAGACUUGACGAAGCUG
# How it was run: as §1
# biotinyl-Leu-oxazolone = assay: self-aminoacylation, catalytic enhancement (BLO) (fold over background); higher = more active; k-Seq, kA / k0A0; sequences stand for … in GGGAAUGGAUCCACAUCUACGAAUUC…UUCACUGCAGACUUGACGAAGCUG
# How it was run: as §1
# biotinyl-Trp-oxazolone = assay: self-aminoacylation, catalytic enhancement (BWO) (fold over background); higher = more active; k-Seq, kA / k0A0; sequences stand for … in GGGAAUGGAUCCACAUCUACGAAUUC…UUCACUGCAGACUUGACGAAGCUG
# How it was run: as §1
Sequence,self-aminoacylation (biotinyl-Phe-oxazolone),self-aminoacylation (biotinyl-Ile-oxazolone),self-aminoacylation (biotinyl-Met-oxazolone),self-aminoacylation (biotinyl-Val-oxazolone),self-aminoacylation (biotinyl-Leu-oxazolone),self-aminoacylation (biotinyl-Trp-oxazolone)
AUUCACUUAGGUGAUCGGGUG [Fam2.2 aminoacylation ribozyme variant],13.3,2.46,2.59,2.5,3.43,3.03
AUUCACUUAUGUCAUCGGGUG [Fam2.2 aminoacylation ribozyme variant],42.6,3.42,5.5,3.08,7.31,5.18
AUUCACUUGGGUCAUCGGGUG [Fam2.2 aminoacylation ribozyme variant],43.9,4.61,6.84,4.44,7.5,6.5
AUUCAGCUAGAUCAUCGGGUG [Fam2.2 aminoacylation ribozyme variant],26.3,2.71,4.04,2.85,4.61,3.9
AUUCAGCUAGGACAUCGGGUG [Fam2.2 aminoacylation ribozyme variant],42.1,3.53,4.65,3.53,5.98,4.43
AUUCAGCUAGGUCAACGGGUG [Fam2.2 aminoacylation ribozyme variant],5.84,1.81,1.92,1.83,2.43,2.6
AUUCAGCUAGGUCACCGGGUG [Fam2.2 aminoacylation ribozyme variant],51.6,4.69,7.17,4.32,6.32,7.07
AUUCAGCUAGGUCAUCCGGUG [Fam2.2 aminoacylation ribozyme variant],44.2,5.29,6.6,5.44,8.88,8.08
AUUCAGCUAGGUCAUCGGGAG [Fam2.2 aminoacylation ribozyme variant],4.09,1.72,1.61,1.68,1.69,1.32
AUUCAGCUCGGUCAUCGGGUG [Fam2.2 aminoacylation ribozyme variant],78.7,4.88,9.53,5.43,9.01,7.34
AUUCAGCUGGGUCAUCGGGUG [Fam2.2 aminoacylation ribozyme variant],37.9,3.79,5.66,4.76,5.07,4.72
AUUCAUCAAGGUCAUCGGGUG [Fam2.2 aminoacylation ribozyme variant],74.7,5.94,9.84,5.94,10.9,10.2
AUUCAUCUAGAUCAUCGGGUG [Fam2.2 aminoacylation ribozyme variant],14.1,2.1,2.68,2.14,4.1,3.24
AUUCAUCUAGGCCAUCGGGUG [Fam2.2 aminoacylation ribozyme variant],19,2.39,3.38,2.84,5.22,3
AUUCAUCUAGGGCAUCGGGUG [Fam2.2 aminoacylation ribozyme variant],21.4,2.81,3.45,2.97,4.32,2.7
AUUCAUCUAGGUCAUAGGGUG [Fam2.2 aminoacylation ribozyme variant],10.1,2,2.63,1.87,3.39,2.83
AUUCAUCUAGGUCAUCGGGGG [Fam2.2 aminoacylation ribozyme variant],5.32,1.82,2.13,1.9,2.31,2.14
AUUCAUCUAUGUCAUCGGGUG [Fam2.2 aminoacylation ribozyme variant],50.7,4.09,6.63,3.8,8.74,6.27
AUUCAUUUAGGUCAUCGGGUG [Fam2.2 aminoacylation ribozyme variant],45.6,3.25,5.48,3.33,6.72,5.6
AUUCCCCAGGUCAUCGAGUGA [Fam2.1 aminoacylation ribozyme variant],21.1,3.12,4.86,3.75,4.83,6.65
AUUCCCCGGGUCAUCGAGUGA [Fam2.1 aminoacylation ribozyme variant],30,3.32,4.59,2.92,4.99,6.46
AUUCCCCUAGGUCAUCGCGUG [Fam2.2 aminoacylation ribozyme variant],826,64.1,102,77.6,141,99.5

Sequence,self-aminoacylation (biotinyl-Phe-oxazolone),self-aminoacylation (biotinyl-Ile-oxazolone),self-aminoacylation (biotinyl-Met-oxazolone),self-aminoacylation (biotinyl-Val-oxazolone),self-aminoacylation (biotinyl-Leu-oxazolone),self-aminoacylation (biotinyl-Trp-oxazolone)
AUUCCCCUAGGUCAUCGGGUG [Fam2.2 aminoacylation ribozyme variant],196,14.9,24.4,14.9,32.9,23.2
AUUCCCCUAGGUCAUUGGGUG [Fam2.2 aminoacylation ribozyme variant],92.5,7.23,10.3,7.95,15.6,11.8
AUUCCCCUAGGUCGUCGGGUG [Fam2.2 aminoacylation ribozyme variant],31.9,5.97,7.13,5.97,9.19,7.42
AUUCCCCUAUGUCAUCGGGUG [Fam2.2 aminoacylation ribozyme variant],154,12.2,19.2,10.9,23.5,18.4
AUUCCCCUGGUCAUCGAGUGC [Fam2.1 aminoacylation ribozyme variant],1.33,1.36,1.35,1.64,1.63,2.07
AUUCCCCUGGUCAUCGAGUGU [Fam2.1 aminoacylation ribozyme variant],15.2,2.39,3.09,2.61,3.28,3.8
AUUCCCCUGGUCAUCGCGUGA [Fam2.1 aminoacylation ribozyme variant],213,12.2,22.1,15,28.2,26.8
AUUCCCCUGGUCAUCGGGUGA [Fam2.1 aminoacylation ribozyme variant],106,7.79,14.1,8.68,14.4,15.6
AUUCCCCUGGUCGUCGAGUGA [Fam2.1 aminoacylation ribozyme variant],6.18,1.48,1.42,1.33,1.71,1.52
AUUCCCCUGGUCUUCGAGUGA [Fam2.1 aminoacylation ribozyme variant],64.6,5.69,9.43,5.87,9.91,11.8
AUUCCCCUGGUGAUCGAGUGA [Fam2.1 aminoacylation ribozyme variant],36.9,3.12,5.51,3.13,5.91,6.06
AUUCGCCUAAGUCAUCGGGUG [Fam2.2 aminoacylation ribozyme variant],117,7.83,12.9,7.95,15.6,11.7
AUUCGCCUAGGCCAUCGGGUG [Fam2.2 aminoacylation ribozyme variant],35.5,3.15,4.46,4.16,5.27,4.7
AUUCGCCUAGGGCAUCGGGUG [Fam2.2 aminoacylation ribozyme variant],26.1,3.24,5.3,3.45,5.64,4.92
AUUCGCCUAGGUCAACGGGUG [Fam2.2 aminoacylation ribozyme variant],27.8,2.76,4.66,2.72,6.03,3.75
AUUCGCCUAGGUCAGCGGGUG [Fam2.2 aminoacylation ribozyme variant],37.8,3.91,5.21,3.96,5.95,5.11
AUUCGCCUAGGUCAUCGCGUG [Fam2.2 aminoacylation ribozyme variant],126,10,19.2,10.9,23.4,17.6
AUUCGCCUAGGUCAUCGGCUG [Fam2.2 aminoacylation ribozyme variant],6.51,2.08,1.95,2.16,2.16,2.11
AUUCGCCUAGGUCAUCGGGUU [Fam2.2 aminoacylation ribozyme variant],75.6,8.6,14.1,7.13,20.5,10.8
AUUCGCCUAGGUCGUCGGGUG [Fam2.2 aminoacylation ribozyme variant],11.6,1.56,2.28,2.22,2.18,1.51
AUUCGCCUAGUUCAUCGGGUG [Fam2.2 aminoacylation ribozyme variant],16.2,2.26,2.85,2.8,3.82,3.62
